B1: LOC100129726 (parent)
chain: AKAADSPTRNDLESGLGHFSLRVH

Variants of: B1
Test: protein stability index of a GFP-peptide fusion (GPS, HEK-293T) (PSI 1-6); higher = more stable
Settings: c terminus: a fixed tail appended
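Further: lentivirally expressed fusions sorted by FACS into six bins by GFP to DsRed ratio, PSI derived from sequencing read proportions per bin multiplied by bin number.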

Row | Variant | protein stability index
1 | AKAADSPTRNDLESGLGHNSLRVH [F19N] | 4.24
2 | AKAADSPTRNDLESGLGHGSLRVH [F19G] | 4.32
3 | AKAADSPTRNDLESGLGHVSLRVH [F19V] | 3.58
4 | AKAADSPTRNDLESGLGHPSLRVH [F19P] | 4.33
5 | AKAADSPTRNDLESGLGHRSLRVH [F19R] | 4.28
6 | AKAADSPTRNDLESGLGHDSLRVH [F19D] | 4.6
7 | AKAADSPTRNDLESGLGHMSLRVH [F19M] | 3.69
8 | AKAADSPTRNDLESGLGHYSLRVH [F19Y] | 3.16
9 | AKAADSPTRNDLESGLGHSSLRVH [F19S] | 4.61
10 | AKAADSPTRNDLESGLGHLSLRVH [F19L] | 3.31
11 | AKAADSPTRNDLESGLGHWSLRVH [F19W] | 2.76
12 | AKAADSPTRNDLESGLGHESLRVH [F19E] | 4.6
13 | AKAADSPTRNDLESGLGHTSLRVH [F19T] | 4.66
14 | AKAADSPTRNDLESGLGHASLRVH [F19A] | 3.95
15 | AKAADSPTRNDLESGLGHQSLRVH [F19Q] | 4.33
16 | AKAADSPTRNDLESGLGHHSLRVH [F19H] | 3.67
17 | AKAADSPTRNDLESGLGHKSLRVH [F19K] | 4.63
18 | AKAADSPTRNDLESGLGHFSWRVH [L21W] | 3.45
19 | AKAADSPTRNDLESGLGHFSSRVH [L21S] | 4.39
20 | AKAADSPTRNDLESGLGHFSVRVH [L21V] | 3.84
21 | AKAADSPTRNDLESGLGHFSERVH [L21E] | 4.38
22 | AKAADSPTRNDLESGLGHFSIRVH [L21I] | 2.33
23 | AKAADSPTRNDLESGLGHFSPRVH [L21P] | 4.25
24 | AKAADSPTRNDLESGLGHFSDRVH [L21D] | 5.01
25 | AKAADSPTRNDLESGLGHFSGRVH [L21G] | 4.79

Row | Variant | protein stability index
26 | AKAADSPTRNDLESGLGHFSARVH [L21A] | 4.25
27 | AKAADSPTRNDLESGLGHFSMRVH [L21M] | 3.6
28 | AKAADSPTRNDLESGLGHFSNRVH [L21N] | 4.3
29 | AKAADSPTRNDLESGLGHFSHRVH [L21H] | 3.55
30 | AKAADSPTRNDLESGLGHFSTRVH [L21T] | 4.08
31 | AKAADSPTRNDLESGLGHFSQRVH [L21Q] | 4
32 | AKAADSPTRNDLESGLGHFSFRVH [L21F] | 2.38
33 | AKAADSPTRNDLESGLGHFSKRVH [L21K] | 3.5
34 | AKAADSPTRNDLESGLGHFSRRVH [L21R] | 2.98
35 | AKAADSPTRNDLESGLGHFSCRVH [L21C] | 4.2
36 | AKAADSPTRNDLESGLGHFSYRVH [L21Y] | 3.06
37 | AKAADSPTRNDLESGLGHFSLRVQ [H24Q] | 3.53
38 | AKAADSPTRNDLESGLGHFSLRVF [H24F] | 2.32
39 | AKAADSPTRNDLESGLGHFSLRVV [H24V] | 2.61
40 | AKAADSPTRNDLESGLGHFSLRVN [H24N] | 4.15
41 | AKAADSPTRNDLESGLGHFSLRVT [H24T] | 3.41
42 | AKAADSPTRNDLESGLGHFSLRVA [H24A] | 2.92
43 | AKAADSPTRNDLESGLGHFSLRVP [H24P] | 3.73
44 | AKAADSPTRNDLESGLGHFSLRVC [H24C] | 2.49
45 | AKAADSPTRNDLESGLGHFSLRVL [H24L] | 2.59
46 | AKAADSPTRNDLESGLGHFSLRVM [H24M] | 2.25
47 | AKAADSPTRNDLESGLGHFSLRVW [H24W] | 2.09
48 | AKAADSPTRNDLESGLGHFSLRVD [H24D] | 3.63
49 | AKAADSPTRNDLESGLGHFSLRVY [H24Y] | 1.58
50 | AKAADSPTRNDLESGLGHFSLRVS [H24S] | 3.6

Row | Variant | protein stability index
51 | AKAADSPTRNDLESGLGHFSLRVG [H24G] | 2.64
52 | AKAADSPTRNDLESGLGHFSLRVK [H24K] | 3.92
53 | AKAADSPTRNDLESGLGHFSLRVI [H24I] | 1.9
54 | AKAADSPTRNDLESGLGHFSLRVE [H24E] | 3.75
55 | AKAADSPTRNDLESGLGHFSLRVR [H24R] | 2.79
56 | AKAADSPTRNDLESGLGHFSLKVH [R22K] | 3.59
57 | AKAADSPTRNDLESGLGHFSLGVH [R22G] | 3.5
58 | AKAADSPTRNDLESGLGHFSLMVH [R22M] | 2.61
59 | AKAADSPTRNDLESGLGHFSLWVH [R22W] | 2.4
60 | AKAADSPTRNDLESGLGHFSLPVH [R22P] | 4
61 | AKAADSPTRNDLESGLGHFSLFVH [R22F] | 2.43
62 | AKAADSPTRNDLESGLGHFSLNVH [R22N] | 3.62
63 | AKAADSPTRNDLESGLGHFSLDVH [R22D] | 4.28
64 | AKAADSPTRNDLESGLGHFSLYVH [R22Y] | 2.31
65 | AKAADSPTRNDLESGLGHFSLCVH [R22C] | 2.27
66 | AKAADSPTRNDLESGLGHFSLAVH [R22A] | 3.47
67 | AKAADSPTRNDLESGLGHFSLVVH [R22V] | 2.71
68 | AKAADSPTRNDLESGLGHFSLTVH [R22T] | 2.8
69 | AKAADSPTRNDLESGLGHFSLEVH [R22E] | 3.92
70 | AKAADSPTRNDLESGLGHFSLQVH [R22Q] | 2.73
71 | AKAADSPTRNDLESGLGHFSLHVH [R22H] | 3.25
72 | AKAADSPTRNDLESGLGHFSLIVH [R22I] | 2.61
73 | AKAADSPTRNDLESGLGHFSLLVH [R22L] | 2.7
74 | AKAADSPTRNDLESGLGHFSLSVH [R22S] | 2.98
75 | AKAADSPTRNDLESGLGTFSLRVH [H18T] | 3.05

Row | Variant | protein stability index
76 | AKAADSPTRNDLESGLGLFSLRVH [H18L] | 2.38
77 | AKAADSPTRNDLESGLGGFSLRVH [H18G] | 3.84
78 | AKAADSPTRNDLESGLGWFSLRVH [H18W] | 1.59
79 | AKAADSPTRNDLESGLGYFSLRVH [H18Y] | 2.66
80 | AKAADSPTRNDLESGLGMFSLRVH [H18M] | 2.29
81 | AKAADSPTRNDLESGLGEFSLRVH [H18E] | 3.45
82 | AKAADSPTRNDLESGLGKFSLRVH [H18K] | 3.15
83 | AKAADSPTRNDLESGLGCFSLRVH [H18C] | 3.2
84 | AKAADSPTRNDLESGLGRFSLRVH [H18R] | 3.08
85 | AKAADSPTRNDLESGLGFFSLRVH [H18F] | 2.1
86 | AKAADSPTRNDLESGLGPFSLRVH [H18P] | 3.04
87 | AKAADSPTRNDLESGLGSFSLRVH [H18S] | 3.73
88 | AKAADSPTRNDLESGLGVFSLRVH [H18V] | 2.73
89 | AKAADSPTRNDLESGLGQFSLRVH [H18Q] | 3.44
90 | AKAADSPTRNDLESGLGAFSLRVH [H18A] | 3.25
91 | AKAADSPTRNDLESGLGDFSLRVH [H18D] | 4.08
92 | AKAADSPTRNDLESGLGNFSLRVH [H18N] | 3.53
93 | AKAADSPTRNDLESGLGIFSLRVH [H18I] | 3.13
94 | AKAADSPTRNDLESGLRHFSLRVH [G17R] | 2.89
95 | AKAADSPTRNDLESGLSHFSLRVH [G17S] | 2.84
96 | AKAADSPTRNDLESGLWHFSLRVH [G17W] | 2.96
97 | AKAADSPTRNDLESGLLHFSLRVH [G17L] | 1.65
98 | AKAADSPTRNDLESGLDHFSLRVH [G17D] | 3.82
99 | AKAADSPTRNDLESGLTHFSLRVH [G17T] | 2.56
100 | AKAADSPTRNDLESGLPHFSLRVH [G17P] | 3.06

Row | Variant | protein stability index
101 | AKAADSPTRNDLESGLEHFSLRVH [G17E] | 3.58
102 | AKAADSPTRNDLESGLYHFSLRVH [G17Y] | 2.37
103 | AKAADSPTRNDLESGLKHFSLRVH [G17K] | 2.89
104 | AKAADSPTRNDLESGLVHFSLRVH [G17V] | 3.13
105 | AKAADSPTRNDLESGLIHFSLRVH [G17I] | 2.28
106 | AKAADSPTRNDLESGLMHFSLRVH [G17M] | 2.27
107 | AKAADSPTRNDLESGLHHFSLRVH [G17H] | 2.57
108 | AKAADSPTRNDLESGLNHFSLRVH [G17N] | 3.18
109 | AKAADSPTRNDLESGLFHFSLRVH [G17F] | 2.08
110 | AKAADSPTRNDLESGLGHFSLRCH [V23C] | 3.45
111 | AKAADSPTRNDLESGLGHFSLRPH [V23P] | 4.13
112 | AKAADSPTRNDLESGLGHFSLRIH [V23I] | 2.42
113 | AKAADSPTRNDLESGLGHFSLRSH [V23S] | 3.48
114 | AKAADSPTRNDLESGLGHFSLRGH [V23G] | 4.16
115 | AKAADSPTRNDLESGLGHFSLRAH [V23A] | 3.67
116 | AKAADSPTRNDLESGLGHFSLRTH [V23T] | 3.49
117 | AKAADSPTRNDLESGLGHFSLRHH [V23H] | 3.55
118 | AKAADSPTRNDLESGLGHFSLRDH [V23D] | 4.68
119 | AKAADSPTRNDLESGLGHFSLRLH [V23L] | 2.88
120 | AKAADSPTRNDLESGLGHFSLREH [V23E] | 4.69
121 | AKAADSPTRNDLESGLGHFSLRNH [V23N] | 3.43
122 | AKAADSPTRNDLESGLGHFSLRYH [V23Y] | 2.61
123 | AKAADSPTRNDLESGLGHFSLRWH [V23W] | 2.14
124 | AKAADSPTRNDLESGLGHFSLRQH [V23Q] | 3.58
125 | AKAADSPTRNDLESGLGHFSLRMH [V23M] | 3.29

Row | Variant | protein stability index
126 | AKAADSPTRNDLESGLGHFSLRRH [V23R] | 4.03
127 | AKAADSPTRNDLESGLGHFSLRKH [V23K] | 4.43
128 | AKAADSPTRNDLESGLGHFSLRFH [V23F] | 2.14
129 | AKAADSPTRNDLESGLGHFCLRVH [S20C] | 2.45
130 | AKAADSPTRNDLESGLGHFFLRVH [S20F] | 2.05
131 | AKAADSPTRNDLESGLGHFTLRVH [S20T] | 3.1
132 | AKAADSPTRNDLESGLGHFQLRVH [S20Q] | 3.17
133 | AKAADSPTRNDLESGLGHFMLRVH [S20M] | 2.87
134 | AKAADSPTRNDLESGLGHFRLRVH [S20R] | 2.19
135 | AKAADSPTRNDLESGLGHFKLRVH [S20K] | 3.4
136 | AKAADSPTRNDLESGLGHFDLRVH [S20D] | 3.46
137 | AKAADSPTRNDLESGLGHFVLRVH [S20V] | 2.21
138 | AKAADSPTRNDLESGLGHFELRVH [S20E] | 3.72
139 | AKAADSPTRNDLESGLGHFALRVH [S20A] | 3.29
140 | AKAADSPTRNDLESGLGHFHLRVH [S20H] | 3.35
141 | AKAADSPTRNDLESGLGHFILRVH [S20I] | 1.48
142 | AKAADSPTRNDLESGLGHFLLRVH [S20L] | 2.09
143 | AKAADSPTRNDLESGLGHFNLRVH [S20N] | 3.45
144 | AKAADSPTRNDLESGLGHFWLRVH [S20W] | 2.25
145 | AKAADSPTRNDLESGLGHFYLRVH [S20Y] | 1.58
146 | AKAADSPTRNDLESGLGHFGLRVH [S20G] | 3.11
147 | AKAADSPTRNDLESGLGHFPLRVH [S20P] | 3.81

Reference: the supplement of paper PMC10567573
